Measured values from PMC9098846, “Molecular insights into biogenesis of glycosylphosphatidylinositol anchor proteins” (Nature Communications, 2022).

Biological target: T1, PIGT, subunit of the human GPI transamidase (GPI-T) (human) (UniProt Q969N2)
T1 sequence (chain, disulfide bond from C182 to PIGK C92): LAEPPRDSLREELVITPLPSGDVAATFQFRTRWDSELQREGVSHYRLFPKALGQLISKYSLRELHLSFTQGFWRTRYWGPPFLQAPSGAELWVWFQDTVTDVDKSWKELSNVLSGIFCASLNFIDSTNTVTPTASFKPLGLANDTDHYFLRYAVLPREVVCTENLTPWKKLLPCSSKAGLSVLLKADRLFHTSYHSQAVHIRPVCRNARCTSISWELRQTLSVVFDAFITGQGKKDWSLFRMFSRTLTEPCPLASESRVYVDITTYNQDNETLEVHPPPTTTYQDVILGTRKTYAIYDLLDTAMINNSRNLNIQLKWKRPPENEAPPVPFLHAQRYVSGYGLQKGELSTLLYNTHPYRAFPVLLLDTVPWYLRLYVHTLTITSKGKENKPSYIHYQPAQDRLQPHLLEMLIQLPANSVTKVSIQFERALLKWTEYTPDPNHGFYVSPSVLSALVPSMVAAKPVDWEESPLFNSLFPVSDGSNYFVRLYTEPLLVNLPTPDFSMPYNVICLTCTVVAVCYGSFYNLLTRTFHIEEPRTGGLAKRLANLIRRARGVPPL

B1: PIGK C92A (enzyme)
chain: SHIEDQAEQFFRSGHTNNWAVLVCTSRFWFNYRHVANTLSVYRSVKRLGIPDSHIVLMLADDMAANPRNPKPATVFSHKNMELNVYGDDVEVDYRSYEVTVENFLRVLTGRIPPSTPRSKRLLSDDRSNILIYMTGHGGNGFLKFQDSEEITNIELADAFEQMWQKRRYNELLFIIDTCQGASMYERFYSPNIMALASSQVGEDSLSHQPDPAIGVHLMDRYTFYVLEFLEEINPASQTNMNDLFQVCPKSLCVSTPGHRTDLFQRDPKNVLITDFFGSVRKVEITTETIKLQQDSEIMESSYKEDQMDEKLMEPLKYAEQLPVAQIIHQKPKLKDWHPPGGFILGLWALIIMVFFKTYGIKHMKFIF
In the case of B1, the apparent GPI-T activity: surface staining of the reporter GPI-AP CD59 on PIGK knockout cells by flow cytometry, compared to the wild-type PIGK (% of wild-type) is reported as 61.
